Experimental data reported in patent publication US20210047402A1 (published 2021).

Target: human CD22 (human, UniProt P20273 20-687)
Assay: BLI
Method in brief: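 Binding affinity was measured by biolayer interferometry, with Kd taken as koff/kon. The instrument was an Octet QK-384 with anti-human IgG Fc capture biosensors, run in 1×PBS, 0.1% BSA, 0.02% Tween-20, pH 7.2. After loading at 5 μg/mL for 120 seconds, the heavy chain-only antibodies were exposed to human CD22 protein in a 7-point 1:2 series from 250 nM, with a buffer-only reference well. Rate constants came from a 1:1 binding model in Octet Data Analysis v9.0.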

human CD22, sequence (P20273 20-687): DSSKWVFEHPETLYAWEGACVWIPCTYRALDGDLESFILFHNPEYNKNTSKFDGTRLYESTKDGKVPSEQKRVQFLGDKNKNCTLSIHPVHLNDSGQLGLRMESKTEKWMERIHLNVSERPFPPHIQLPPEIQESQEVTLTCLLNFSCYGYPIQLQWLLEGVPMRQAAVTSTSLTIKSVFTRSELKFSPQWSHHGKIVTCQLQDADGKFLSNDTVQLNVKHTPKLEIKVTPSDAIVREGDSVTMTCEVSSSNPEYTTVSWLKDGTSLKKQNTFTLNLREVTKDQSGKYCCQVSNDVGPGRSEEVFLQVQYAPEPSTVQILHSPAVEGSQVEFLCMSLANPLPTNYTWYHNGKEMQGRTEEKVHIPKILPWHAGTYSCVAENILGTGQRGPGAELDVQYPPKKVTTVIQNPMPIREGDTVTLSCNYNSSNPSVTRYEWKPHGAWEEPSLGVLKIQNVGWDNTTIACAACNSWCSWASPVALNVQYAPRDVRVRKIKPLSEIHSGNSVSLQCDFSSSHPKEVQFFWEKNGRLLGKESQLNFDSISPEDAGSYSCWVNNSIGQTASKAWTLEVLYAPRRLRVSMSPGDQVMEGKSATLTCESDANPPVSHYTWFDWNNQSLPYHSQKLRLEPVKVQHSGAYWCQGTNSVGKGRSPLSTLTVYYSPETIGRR

| Binder | Kd [nM] |
| --- | --- |
| anti-CD22 heavy chain-only antibody Clone ID 335220 (antibody, V domains shown) VH: QLQLQESGPGLVKPSETLSLTCTVSGGSISSSSYYWGWIRQPPGKGLEWIGSIYYSGSTYYNPSLKNRVTISVDTSKNQFSLKLSSVTAADTAVYYCTREDSSNWRSRGQGTLVTVSS | 48.2 |
| anti-CD22 heavy chain-only antibody Clone ID 335242 (antibody, V domains shown) VH: QLQLQESGPGLVKPSETLSLTCTVSGGSISSSSYYWGWIRQPPGKGLEWIGHIYYSGATYYNPSLKNRVTISVDTSRNQFSLNLSSVTAADTAVYYCTREDSSNWRSRGQGTLVTVSS | 79.7 |
| anti-CD22 heavy chain-only antibody Clone ID 335311 (antibody, V domains shown) VH: QLQLQESGPGLVKPSETLSLTCAVYGGSFSGYYWGWIRQPPGKGLEWIGHIYYSGATYYNPSLKNRVTISVDTSRNQFSLNLSSVTAADTAVYYCTREDSSSWRSRGQGTLVTVSS | 2.66 |
| anti-CD22 heavy chain-only antibody Clone ID 335333 (antibody, V domains shown) VH: QLQLQESGPGLVKPSETLSLTCTVSGGSISSSSYYWGWIRQPPGKGLEWIGSIYYSGSTYYNPSLKSRVTISVDTSKNQFSLKLSSVTAADTAVYYCAREDSSSWRSRGQGTLVTVSS | 22.4 |
| anti-CD22 heavy chain-only antibody Clone ID 335189 (antibody, V domains shown) VH: QLQLQESGPGLVKPSETLSLTCTVSGGSISSSSYYWGWIRQPPGKGLEWIGSVYYTGATYYNPSLKNRVTISVDTSKNQFSLKLSSVTAADTAVYYCTRDDSSNWRSRGQGTLVTVSS | 36 |
| anti-CD22 heavy chain-only antibody Clone ID 335166 (antibody, V domains shown) VH: QLQLQESGPGLVKPSETLSLTCTVSGGSISSSSYYWGWIRQPPGKGLEWIGSIYYSGSTYYNPSLKNRVTISVDTSRNQFSLNLSSVTAADTAVYYCTRDDSSNWRSRGQGTLVTVSS | 33 |
| anti-CD22 heavy chain-only antibody Clone ID 335266 (antibody, V domains shown) VH: QLQLQESGPGLVRPSETLSLTCTVSGGSISSSSYYWGWIRQPPGKGLEWIGSIYYSGSTYYNPSLKSRVTISVDTSKNQFSLKLSSVTAADTAVYYCTREDSSSWRSRGQGTLVTVSS | 38.5 |
| anti-CD22 heavy chain-only antibody Clone ID 335186 (antibody, V domains shown) VH: QLQLQESGPGLVKPSETLSLTCTVSGGSISSSSYYWGWIRQPPGKGLEWIGSIYYSGSTYYNPSLKSRVTISVDTSKNQFSLKLSSVTAADTAVYYCTRDDSSNWRSRGQGTLVTVSS | 17.6 |
| anti-CD22 heavy chain-only antibody Clone ID 335195 (antibody, V domains shown) VH: QLQLQESGPGLVKPSETLSLTCTVSGGSISSSSYYWGWIRQPPGKGLEWIGSIYYSGATYYNPSLKNRVTISVDTSRNQFSLNLSSVTAADTAMYYCTREDSSNWRSRGQGTLVTVSS | 150 |
| anti-CD22 heavy chain-only antibody Clone ID 335173 (antibody, V domains shown) VH: QLQLQESGPGLVKPSETLSLTCTVSGGSITSSSYYWGWIRQPPGKGLEWIGSIYYSGSTYYNPSLKSRVTISVDTSKNQFSLKLSSVTAADTAVYYCTRDDSSNWRSRGQGTLVTVSS | 30.5 |
| anti-CD22 heavy chain-only antibody Clone ID 335224 (antibody, V domains shown) VH: QLQLQESGPGLVKPSETLSLTCTVSGDSISSGDYYWGWIRQPPGKGLEWIGSIYYTGSTYYNPSLKSRVTISVDTSKNQFSLKLSSVTAADTAVYYCTREDSSNWRSRGQGTLVTVSS | 23.4 |
| anti-CD22 heavy chain-only antibody Clone ID 335179 (antibody, V domains shown) VH: QLQLQESGPGLVKPSETLSLTCTVSGGSISSSSYYWGWFRHPPGKGLDWIGSIHYSGSTYYNPSLKSRVTISVDTSRNQFSLNLSSVTAADTAVYYCTRDDSSNWRSRGQGTLVTVSS | 148 |
| anti-CD22 heavy chain-only antibody Clone ID 335188 (antibody, V domains shown) VH: QLQLQESGPGLVKPSETLSLTCTVSGGSISSSSYYWGWIRQPPGKGLEWIGHIYYSGVTYYNPSLKNRVTISVDTSKNQFSLKLSSVTAADTAVYYCTRDDSSNWRSRGQGTLVTVSS | 53 |
| anti-CD22 heavy chain-only antibody Clone ID 335210 (antibody, V domains shown) VH: QLQLQESGPGLVKPSETLSLTCTVSGGSISSGDYYWGWIRQPPGKGLEWIGHIYYSGATYYNPSLKNRVTISVDTSRNQFSLKLSSVTAADTAVYYCTREDSSNWRSRGQGTLVTVSS | 62.5 |
| anti-CD22 heavy chain-only antibody Clone ID 335273 (antibody, V domains shown) VH: QLQLQESGPGLVKPSETLSLTCTVSGGSISSSSYYWGWIRQPPGKGLEWIGSIYYSGSTYYNPSLKSRVTISVDTSKNQFSLKLSSVTAADTAVYYCTREDSSSWRSRGQGTLVTVSS | 42.2 |
| anti-CD22 heavy chain-only antibody Clone ID 335230 (antibody, V domains shown) VH: QLQLQESDPGLVKPSETLSLTCTVSGGSISSSSHYWGWIRQPPGKGLEWIGHIYYSGATYYNPSLKNRVTISVDTSRNQFSLNLSSVTAADTAVYYCTREDSSNWRSRGQGTLVTVSS | 75.2 |
| anti-CD22 heavy chain-only antibody Clone ID 335283 (antibody, V domains shown) VH: QLQLQESGPGLVKPSETLSLTCTVSGGSISSSSYYWGWIRQPPGKGLEWIGSIYYSGATYYNPSLKNRVTISVDTSKNQFSLKLSSVTAADTAVYYCTREDSSSWRSRGQGTLVTVSS | 36.9 |
| anti-CD22 heavy chain-only antibody Clone ID 335233 (antibody, V domains shown) VH: QLQLQESGPGLVKPSETLSLTCTVSGDSISSGDYYWGWIRQPPGKGLEWIGSIYYSGSTYYNPSLKSRVTISVDTSKNQFSLKLSSVTAADTAVYYCTREDSSNWRSRGQGTLVTVSS | 19 |
| anti-CD22 heavy chain-only antibody Clone ID 335295 (antibody, V domains shown) VH: QLQLQESGPGLVKPSETLSLTCTVSGGSISSSSYYWGWIRQPPGKGLEWIGSIYYSGATYYNPSLKNRVTISVDTSRNQFSLNLSSVTAADTAVYYCTREDSSSWRSRGQGTLVTVSS | 31.6 |
| anti-CD22 heavy chain-only antibody Clone ID 335236 (antibody, V domains shown) VH: QLQLQESGPGLVKPSETLSLTCTVSGGSISSSSYYWGWIRQPPGKGLEWIGSIYYSGSTYYNPSLKSRVTISVDTSKNQFSLKLSSVTAADTAVYYCTREDSSNWRSRGQGTLVTVSS | 27.3 |
| anti-CD22 heavy chain-only antibody Clone ID 335297 (antibody, V domains shown) VH: QLQLQESGPGLVKPSETLSLTCTVSGGSISSSSYYWGWIRQPPGKGLEWIGHIYYSGATYYNPSLKNRVTISVDTSRNQFSLNLSSVTAADTAVYYCTREDSSSWRSRGQGTLVTVSS | 28.8 |
| anti-CD22 heavy chain-only antibody Clone ID 335226 (antibody, V domains shown) VH: QLQLQESGPGLVKPSETLSLTCTVSGDSISSSSYYWGWIRQPPGKGLEWIGSIYYSGSTYYNPSLKSRVTISVDTSKNQFSLKLSSVTAADTAVYYCTREDSSNWRSRGQGTLVTVSS | 25.5 |
| anti-CD22 heavy chain-only antibody Clone ID 335208 (antibody, V domains shown) VH: QLQLQESGPGLVKPSETLSLTCTVSGGSISSSSYYWGWIRQPPGKGLEWIGSIYYSGATYYNPSLKNRVTISVDTSRNQFSLNLSSVTAADTAVYYCTREDSSNWRSRGQGTLVTVSS | 58.4 |
| anti-CD22 heavy chain-only antibody Clone ID 335219 (antibody, V domains shown) VH: QLQLQESGPGLVKPSETLSLTCTVSGGSISSSSYYWGWIRQPPGKGLEWIGSIYYSGVTYYNPSLKNRVTISVDTSKNQFSLKLSSVTAADTAVYYCTREDSSNWRSRGQGTLVTVSS | 90.6 |
| anti-CD22 heavy chain-only antibody Clone ID 335285 (antibody, V domains shown) VH: QLQLQESGPGLVKPSETLSLTCTVSGGSISSSSYYWGWIRQPPGKGLEWIGSIYYSGVTYYNPSLKNRVTISVDTSKNQFSLKLSSVTAADTAVYYCTREDSSSWRSRGQGTLVTVSS | 114 |
